How the values were obtained:
[1] = system: soybean cyst nematode (SCN, Heterodera glycines); test: Soybean cyst nematode reproduction on soybean after seed treatment, controlled environment (cysts per gram of root tissue or per plant); type: in vivo
[2] = system: SCN juveniles (SCN HG type 1.2.5.7, race 2); test: In-vitro plate assay of SCN juvenile viability (difference in percent death); type: in vivo
Experimental: (§1) SCN eggs were obtained from SCN HG type 1.2.5.7, race 2. Eggs were rinsed 4 times with sterile water. Eggs were transferred to a 6-well plate and resuspended in 5 mL of 3 mM ZnSO4. The plate was sealed with parafilm, covered with aluminum foil to prevent light from entering the plate, and placed in a plate growth chamber at 25° C. and 80% relative humidity. After 6-7 days of incubation, an estimate of hatched SCN juveniles was obtained from the well to determine the overall number of juveniles per 10 μL. The concentration of the hatchery solution was adjusted until it consisted of 20-30 juveniles per 10 μL.
Potato dextrose agar media containing chloramphenicol and chlortetracycline was prepared and added to sterile twenty-four-well cell culture plates (1 mL per well). The plates were divided according to the pre-determined N-value for each treatment (N=12-24). Each treatment being tested was added to the agar surface within each well at a rate of 40 μL per well. Without allowing the treatments to dry, 10 μL of the prepared nematode mixture was added to the agar surface within each well.
To quantify the treatments' effects on nematode viability, the nematodes were examined under a dissecting microscope at 20× magnification. Initial (TO) values for the number of live juveniles, number of dead juveniles and total number of juveniles were recorded immediately after preparation of each well. The plates were then wrapped in parafilm around the open edge, encased in aluminum foil, and placed in secondary containment. The secondary containment was placed in a plant growth chamber at 25° C. and 80% relative humidity. At approximately 24 hours post addition of juveniles, the plates were evaluated, and the number of live juveniles, dead juveniles and total number of juveniles were recorded (T24).
The difference in percent death at T0 vs T24 was calculated by subtracting the percent dead at TO [(#dead juveniles/total #juveniles)×100] from the percent dead at T24 [(#dead juveniles/#total juveniles originally present)×100]. […] If the ANOVA indicated a significant difference existed among treatments, Tukey's HSD post hoc test was used to perform a pairwise contrast between each set of treatments. Different letters denote statistically significant results at P<0.05.
as §1, with “from” for “from SCN”, “rinsed four” for “rinsed 4”, “and 80-90%” for “and 80%”, “from each” for “from the”
Potato dextrose agar media containing chloramphenicol and chlortetracycline was prepared and added to sterile twenty-four-well cell culture plates (1 mL per well). The plates were divided according to the pre-determined N-value for each treatment (N=24). […]
To quantify the treatments' effects on nematode viability, the nematodes were examined under a dissecting microscope at 20× magnification. Initial (TO) values for the number of live juveniles, number of dead juveniles and total number of juveniles were recorded. […]

[3] = system: soybean cyst nematode (SCN); test: SCN reproduction after application of enzyme or recombinant strain to soil; type: in vivo, Heterodera glycines; conditions: Table 34; for % Comparison to Control (figure in parentheses): change vs water control; for % Comparison to Control: first figure, water control = 100%; for Average cysts per g of root tissue: free enzyme 0.5 mL/plant to soil, soybean 2830E3, 3 weeks
Experimental: To determine the efficacy of nematicidal enzymes applied to soil, a controlled environment trial was performed with 7-day old soybean plants (variety 2830E3) grown in pots. Enzymes were produced as described in Example 2. Prior to inoculation, 0.5 mL of neutral protease (SEQ ID NO: 127), esterase B (SEQ ID NO: 89), or chitinase 19F (SEQ ID NO: 182) free enzyme solution was applied to the soil around the base of each plant, or 0.5 mL of water was applied for the control (30 plants per treatment). Then, hatched SCN juveniles were applied to the soil around each plant as described in Example 2, and three weeks later, cysts per gram of root tissue was determined as described in Example 2. The data was analyzed as in Example 2 and appears in Tables 33 and 34.
To determine the efficacy of recombinant strains applied to soil, a controlled environment trial was performed as described in Example 18 above (Reduction of soybean cyst nematode reproduction by enzymes applied to soil), with the exception that a recombinant strain expressing neutral protease (SEQ ID NO: 127) was applied instead of a free enzyme solution. The recombinant strain was produced as in Example 3, and the treatment applied to soil as a whole cell broth.

[4] = system: Diamondback moth (Plutella xylostella); test: Diet-surface overlay (DSO) bioassay on Diamondback moth; type: in vivo
Experimental: (§2) Diet-surface overlay bioassays are conducted with artificial diet mixes without antibiotics in 1.5 cm^2 cell bioassay trays(s). Artificial diets are commercially available from Southland Products Inc. Diets were prepared by dispersing 0.5 mL of molten diet to each 1.5 cm^2 cell. After solidification, 0.1 mL enzyme treatments were dispersed on top of diet in each cell and the tray was gently rocked in an orbital shaker to spread the liquid uniformly over the diet surface. Trays were placed under clean airflow until the surface of each cell was uniformly dried. One or two 16-cell sections were used per treatment (the number in larvae treated was 16 or 32).
(§3) One healthy first instar larva was placed into each treatment cell, each 16-cell section was covered with a re-sealable lid and incubated at 27° C. and light-dark period of 16:8 hrs. After 7 days, and according to the species, the number of individuals in the following developmental categories was recorded.
Diamondback moth (Plutella xylostella): Dead Larva (lack of movement), Larva Stage I (≤50% relative size), Larva Stage II (100% relative size, full size), Early Pupa (light green color), Late Pupa (light-dark brown color), and Adult.
(§4) Negative/untreated controls were treated with filtered water and positive controls were treated with lethal doses of Bacillus thuringiensis subsp. Kurstaki (Btk) spores at 1000 ppm.

[5] = system: Fall armyworm (Spodoptera frugiperda); test: Diet-surface overlay (DSO) bioassay on Fall armyworm; type: in vivo; conditions: for Larva Stage I / Larva Stage II / Larva Stage III / Larva Stage IV / Dead Larva: Fall armyworm
Experimental: as §2, §3, §4

[6] = Table 11, free enzyme seed treatment 2 fl. oz. per unit of seed (ILEVO 0.15 mg active ingredient per seed), soybean P18A98X, 3 weeks after inoculation
[7] = Table 49, esterases, Diamondback moth, number of individuals of n = 32
[8] = Table 50, esterases, number of individuals of n = 32
[9] = Table 48, chitinases, number of individuals of n = 32, DSO bioassay

B1: Esterase B (SEQ ID NO: 89): Bacillus subtilis Esterase (EstB without signal sequence) (protein, listed as Bacillus subtilis)
chain: ESVHNPVVLVHGISGASYNFFAIKNYLISQGWQSNKLYAIDFYDKTGNNLNNGPQLASYVDRVLKETGAKKVDIVAHSMGGANTLYYIKYLGGGNKIQNVVTLGGANGLVSSTALPGTDPNQKILYTSIYSLNDQIVINSLSRLQGARNIQLYGIGHIGLLSNSQVNGYIKEGLNGGGLNTN
modifications: Esterase (EstB H191 without signal sequence)
- Average cysts per g of root tissue [1, 6]: 19.6 cysts per g of root tissue
- Average cysts per g of root tissue ([1]; Table 15, seed treated with whole cell broth, soybean P18A98X): 56.3 cysts per g of root tissue
- Average cysts per g of root tissue ([1]; Table 25, dried formulation 0.04 units of enzyme activity per seed, liquid 2 fl oz per unit of seed, soybean 3230E3): 233.2 cysts per g of root tissue
- Difference in Percent Death of Nematodes for 0 to 24 Hours ([2]; Table 28, 40 μL of each treatment per well, fertilizer diluted to 3% v/v): 3%
- difference in percent death over twenty-four hours relative to the combination treatment ([2]; single treatment vs Esterase B + 10-34-0 fertilizer combination): −7%
- % Comparison to Control (figure in parentheses) [3]: −16%
- % Comparison to Control [3]: reduced SCN reproduction
- % Comparison to Control ([3]; listed as Esterase B free enzyme (SEQ ID NO: 89)): 84%
- Average cysts per g of root tissue [3]: 117.3 cysts per g of root tissue
- Adult [4, 7]: 0
- Early Pupa [4, 7]: 4
- Larva Stage I [4, 7]: 3
- Larva Stage II [4, 7]: 8
- Late Pupa [4, 7]: 17
- Dead Larva ([4]; Table 49, esterases, Diamondback moth, number of individuals of n = 32, DSO bioassay, dose per treatment in U/mL Diet): 0
- individuals with delayed larva-pupa development ([4]; text to Table 49, esterases, n = 32): 47%
- individuals at larva stage ([4]; text to Table 49: 34% of which were at larva stage): 34%
- Larva Stage I [5, 8]: 3
- Larva Stage II [5, 8]: 4
- Larva Stage III [5, 8]: 14
- Larva Stage IV [5, 8]: 10
- Dead Larva ([5]; Table 50, esterases, number of individuals of n = 32, DSO bioassay, dose per treatment in U/mL Diet): 1
- individuals with delayed development ([5]; text to Table 50, esterases, n = 32): 67%

B2: Chitinase 19F (SEQ ID NO: 182): Streptomyces coelicolor Chitinase F (Chi19F) (protein)
chain: ASCSSYHAWSADANYNTGDIVRYTDGKAYIAEHANPGYDPLISTWYWDPYACDGGSQTPVGNFVVSEAQFNQMFPGRNSFYTYSGLTAALSAYPGFANTGSDTTKKQEAAAFLANVSHETGGLVYIVEQNTANYPHYCDWNQPYGCPAGQAAYYGRGPIQLSWNFNYKAAGDALGIDLLGNPWLVQNDAAVAWKTGLWYWNTQSGPGTMTPHNAMVNGAGFGQTIRSINGSLECDGKNPAQVQSRVTKYQQFAQILGVSPGGNLYC
modifications: Chitinase F (Chi19F); Streptomyces coelicolor
- Average cysts per g of root tissue [1, 6]: 48.8 cysts per g of root tissue
- Average cysts per g of root tissue ([1]; Table 12, free enzyme seed treatment 2 fl. oz. per unit of seed (ILEVO 0.15 mg active ingredient per seed), soybean P18A98X): 296.9 cysts per g of root tissue
- Difference in Percent Death of Nematodes for 0 to 24 Hours ([2]; Table 32, 40 μL per well of each treatment, water only 4%): 24%
- % Comparison to Control (figure in parentheses) [3]: −32%
- % Comparison to Control [3]: reduced SCN reproduction
- % Comparison to Control ([3]; listed as Chitinase 19F free enzyme (SEQ ID NO: 182)): 68%
- Average cysts per g of root tissue [3]: 95.6 cysts per g of root tissue
- Larva Stage I [5, 9]: 4
- Larva Stage II [5, 9]: 14
- Larva Stage III [5, 9]: 5
- Larva Stage IV [5, 9]: 6
- Dead Larva ([5]; Table 48, chitinases, number of individuals of n = 32, DSO bioassay, dose per treatment in mU/mL Diet): 3
